B1: TMEM175 (parent)
chain: SCTIIFLASIFQLAMWTTALLHQA

Variants of: B1
Experiment: protein stability index of a GFP-peptide fusion (GPS, HEK-293T) (PSI 1-6); higher = more stable
Settings: c terminus: a fixed tail appended
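Also: lentivirally expressed fusions sorted by FACS into six bins by GFP to DsRed ratio, PSI derived from sequencing read proportions per bin multiplied by bin number.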

In order of rising protein stability index:
1. SCTIISLASIFQLAMWTTALLHQA  1.02
2. SCTIRFLASIFQLAMWTTALLHQA  1.6
3. SCTIIFLASCFQLAMWTTALLHQA  1.64
4. SCTIVFLASIFQLAMWTTALLHQA  1.82
5. SCTIIFFASIFQLAMWTTALLHQA  1.87
6. SCTIIFLASIMQLAMWTTALLHQA  1.87
7. SCTIIFLASDFQLAMWTTALLHQA  1.94
8. SCTIIFLASIVQLAMWTTALLHQA  2.09
9. SCTIIQLASIFQLAMWTTALLHQA  2.14
10. SCTIIFLASISQLAMWTTALLHQA  2.19
11. SCTIIFLASWFQLAMWTTALLHQA  2.29
12. SCTIIFLASICQLAMWTTALLHQA  2.29
13. SCTIIFLAPIFQLAMWTTALLHQA  2.31
14. SCTIIFEASIFQLAMWTTALLHQA  2.34
15. SCTITFLASIFQLAMWTTALLHQA  2.35
16. SCTIIFKASIFQLAMWTTALLHQA  2.48
17. SCTIIFLAMIFQLAMWTTALLHQA  2.49
18. SCTIIFLATIFQLAMWTTALLHQA  2.5
19. SCTIIFLAGIFQLAMWTTALLHQA  2.5
20. SCTIIKLASIFQLAMWTTALLHQA  2.52
21. SCTIIRLASIFQLAMWTTALLHQA  2.56
22. SCTIIFLASIIQLAMWTTALLHQA  2.56
23. SCTIPFLASIFQLAMWTTALLHQA  2.58
24. SCTIIFLASNFQLAMWTTALLHQA  2.59
25. SCTIIPLASIFQLAMWTTALLHQA  2.59
26. SCTIIFLVSIFQLAMWTTALLHQA  2.62
27. SCTIIFLASIDQLAMWTTALLHQA  2.62
28. SCTIIFLASGFQLAMWTTALLHQA  2.65
29. SCTIIFLASPFQLAMWTTALLHQA  2.65
30. SCTIIFLAYIFQLAMWTTALLHQA  2.66
31. SCTIIVLASIFQLAMWTTALLHQA  2.74
32. SCTIIFLASILQLAMWTTALLHQA  2.74
33. SCTIIELASIFQLAMWTTALLHQA  2.76
34. SCTIIFSASIFQLAMWTTALLHQA  2.77
35. SCTIIFLARIFQLAMWTTALLHQA  2.78
36. SCTIIFMASIFQLAMWTTALLHQA  2.79
37. SCTIIFPASIFQLAMWTTALLHQA  2.79
38. SCTIIFLESIFQLAMWTTALLHQA  2.8
39. SCTIIFLASRFQLAMWTTALLHQA  2.81
40. SCTIIFLPSIFQLAMWTTALLHQA  2.84
41. SCTIINLASIFQLAMWTTALLHQA  2.86
42. SCTIIFLASQFQLAMWTTALLHQA  2.91
43. SCTIIFLASIPQLAMWTTALLHQA  2.96
44. SCTIIFLASSFQLAMWTTALLHQA  2.97
45. SCTIIFLASINQLAMWTTALLHQA  2.97
46. SCTIIFLCSIFQLAMWTTALLHQA  2.98
47. SCTIIFLSSIFQLAMWTTALLHQA  3
48. SCTIIFLASIEQLAMWTTALLHQA  3.04
49. SCTIIFLANIFQLAMWTTALLHQA  3.06
50. SCTIIFLKSIFQLAMWTTALLHQA  3.08
51. SCTIIFLGSIFQLAMWTTALLHQA  3.09
52. SCTIIFWASIFQLAMWTTALLHQA  3.1
53. SCTIIFLASIQQLAMWTTALLHQA  3.1
54. SCTIIFLASIKQLAMWTTALLHQA  3.11
55. SCTIIFCASIFQLAMWTTALLHQA  3.2
56. SCTIIFRASIFQLAMWTTALLHQA  3.25
57. SCTIIFLLSIFQLAMWTTALLHQA  3.28
58. SCTIIFLHSIFQLAMWTTALLHQA  3.28
59. SCTIIFQASIFQLAMWTTALLHQA  3.37
60. SCTIIFLASITQLAMWTTALLHQA  3.38
61. SCTIICLASIFQLAMWTTALLHQA  3.39
62. SCTIIFLASAFQLAMWTTALLHQA  3.45
63. SCTIIFLASVFQLAMWTTALLHQA  3.47
64. SCTIIFLASMFQLAMWTTALLHQA  3.48
65. SCTIIFLASYFQLAMWTTALLHQA  3.52
66. SCTIIFLALIFQLAMWTTALLHQA  3.52
67. SCTIIFVASIFQLAMWTTALLHQA  3.55
68. SCTIIFLAKIFQLAMWTTALLHQA  3.56
69. SCTIIFLAAIFQLAMWTTALLHQA  3.6
70. SCTIIFLASHFQLAMWTTALLHQA  3.64
71. SCTIIFHASIFQLAMWTTALLHQA  3.64
72. SCTIIFLQSIFQLAMWTTALLHQA  3.65
73. SCTIIFLASTFQLAMWTTALLHQA  3.72
74. SCTIIFLDSIFQLAMWTTALLHQA  3.72
75. SCTIIFLASKFQLAMWTTALLHQA  3.74
76. SCTIIFLYSIFQLAMWTTALLHQA  3.74
77. SCTIIFNASIFQLAMWTTALLHQA  3.78
78. SCTIIDLASIFQLAMWTTALLHQA  3.81
79. SCTIIFIASIFQLAMWTTALLHQA  3.83
80. SCTIIFTASIFQLAMWTTALLHQA  3.83
81. SCTIIFLASIAQLAMWTTALLHQA  3.92
82. SCTIIFLFSIFQLAMWTTALLHQA  3.99
83. SCTIIFGASIFQLAMWTTALLHQA  4.01
84. SCTIIFLAEIFQLAMWTTALLHQA  4.07
85. SCTIITLASIFQLAMWTTALLHQA  4.09
86. SCTIIFLTSIFQLAMWTTALLHQA  4.12
87. SCTIIFDASIFQLAMWTTALLHQA  4.13
88. SCTIIFLAQIFQLAMWTTALLHQA  4.14
89. SCTIIFLISIFQLAMWTTALLHQA  4.22
90. SCTIIALASIFQLAMWTTALLHQA  4.41
91. SCTIIFLAWIFQLAMWTTALLHQA  4.47
92. SCTIIFAASIFQLAMWTTALLHQA  4.52
93. SCTIIFLNSIFQLAMWTTALLHQA  4.58
94. SCTIIFLASIRQLAMWTTALLHQA  5.97
